The IC50 is the concentration needed to halve the response being measured. A lower IC50 goes with inhibition by little substance.

From patent publication US20100272719A1 (CHENGDU KANGHONG BIOTECHNOLOGIES, published 2010) come the findings set out here.

Assay [1] has as its target T1, human VEGF165 (human, UniProt P15692-4 27-191). Nature of the assay: comparison of affinity for VEGF, reference Avastin.
Assay [2] concerns the target T1, human VEGF165. Nature of the assay: solution binding: human VEGF incubated 1 h at 37 C with dilutions of binder, free VEGF measured by ELISA kit. In general terms: ELISA stands for enzyme-linked immunosorbent assay.
Assay [3] deals with T1, human VEGF165. Nature of the assay: binding assay on purified fusion protein (quality testing).

T1 sequence (P15692 other isoform, or with tags, fused parts or gaps limits assumed): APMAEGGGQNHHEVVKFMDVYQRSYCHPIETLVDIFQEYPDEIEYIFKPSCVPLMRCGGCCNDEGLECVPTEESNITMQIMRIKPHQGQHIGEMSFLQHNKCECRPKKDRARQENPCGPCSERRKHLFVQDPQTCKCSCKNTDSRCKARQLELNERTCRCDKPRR

B1: FP3′ (FLTd2-KDRd3-KDRd4-Fc chimeric fusion protein) (Fc fusion)
chain: GRPFVEMYSEIPEIIHMTEGRELVIPCRVTSPNITVTLKKFPLDTLIPDGKRIIWDSRKGFIISNATYKEIGLLTCEATVNGHLYKTNYLTHRQTNTIIDVVLSPSHGIELSVGEKLVLNCTARTELNVGIDFNWEYPSSKHQHKKLVNRDLKTQSGSEMKKFLSTLTIDGVTRSDQGLYTCAASSGLMTKKNSTFVRVHEKPFVAFGSGMESLVEATVGERVRIPAKYLGYPPPEIKWYKNGIPLESNHTIKAGHVLTIMEVSERDTGNYTVILTNPISKEKQSHVVSLVVYVPP
Regarding B1, the “fold affinity against Avastin” value with human VEGF165 [1] stood at 50 fold. The figures for the IC50 in the assay with human VEGF165 [2] and with human VEGF165 [3] were 0.01 nM and ≤ 0.05 nM, respectively.

B2: VEGF-TRAP (FP1′, FLTd2KDRd3-Fc) (Fc fusion, UniProt P17948 129-230, looked up)
chain: SDTGRPFVEMYSEIPEIIHMTEGRELVIPCRVTSPNITVTLKKFPLDTLIPDGKRIIWDSRKGFIISNATYKEIGLLTCEATVNGHLYKTNYLTHRQTNTIIDVVLSPSHGIELSVGEKLVLNCTARTELNVGIDFNWEYPSSKHQHKKLVNRDLKTQSGSEMKKFLSTLTIDGVTRSDQGLYTCAASSGLMTKKNSTFVRVHEK
notes: domain: 2nd Ig-like domain of FLT-1;domain: 3rd Ig-like domain of KDR; also called VEGF Trap (R1R2); not shown: human immunoglobulin Fc (IgFc)
B2: the half-maximal inhibitory concentration (IC50) in the assay with human VEGF165 [2] came out at 0.03 nM. This lies in the picomolar range.
